The source of these data is US20120070446A1 (AstraZeneca / MedImmune, published 2012).

For experiment [1], the target named is T1, HIS-tagged recombinant F protein from RSV Long strain (Respiratory Syncytial Virus Long strain, UniProt P12568 26-524).
T1 construct: also called recombinant HIS tagged F protein; recombinant RSV F Long strain containing a poly HIS tag; not shown: poly HIS tag
Nature of the experiment: direct ELISA, HIS-tagged F on Ni-NTA HisSorp plates.

The target of experiment [2] is F protein of RSV A2 virus (on virus particles, neutralization assay) (Respiratory Syncytial Virus A2, UniProt P03420 26-574). Nature of the experiment: cell-based or functional assay.

T1 sequence (P12568 26-524): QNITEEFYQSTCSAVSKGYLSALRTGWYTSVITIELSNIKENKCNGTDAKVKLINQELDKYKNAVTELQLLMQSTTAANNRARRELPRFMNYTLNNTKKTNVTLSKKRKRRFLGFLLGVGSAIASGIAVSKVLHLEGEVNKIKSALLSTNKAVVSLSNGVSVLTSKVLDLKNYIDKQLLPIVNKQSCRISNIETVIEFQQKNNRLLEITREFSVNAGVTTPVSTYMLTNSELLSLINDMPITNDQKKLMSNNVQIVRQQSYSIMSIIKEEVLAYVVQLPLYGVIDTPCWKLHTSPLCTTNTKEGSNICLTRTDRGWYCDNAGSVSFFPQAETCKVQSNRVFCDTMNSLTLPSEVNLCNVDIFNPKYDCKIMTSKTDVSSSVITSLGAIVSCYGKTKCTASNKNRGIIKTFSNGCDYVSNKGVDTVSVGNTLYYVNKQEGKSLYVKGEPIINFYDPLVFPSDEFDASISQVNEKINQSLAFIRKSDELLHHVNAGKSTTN

B1: AM22 (recombinant AM22 mAb, human IgG1/Kappa) (antibody, V domains shown)
VH: QVQLVQSGAEVKKPGATVKVSCKISGHTLIKLSIHWVRQAPGKGLEWMGGYEGEVDEIFYAQKFQHRLTVIADTATDTVYMELGRLTSDDTAVYFCGTLGVTVTEAGLGIDDYWGQGTLVTVSS
VL: EIVLTQSPGTLSLSPGERATLSCRASQIVSRNHLAWYQQKPGQAPRLLIFGASSRATGIPVRFSGSGSGTDFTLTINGLAPEDFAVYYCLSSDSSIFTFGPGTKVDFK
notes: also called AM22 antibody; AM22 monoclonal antibody
For the molecule B1, the binding result in experiment [1] is on record as “no binding”.

B2: palivizumab (antibody, V domains shown)
VH: QVTLRESGPALVKPTQTLTLTCTFSGFSLSTSGMSVGWIRQPPGKALEWLADIWWDDKKDYNPSLKSRLTISKDTSKNQVVLKVTNMDPADTATYYCARSMITNWYFDVWGAGTTVTVSS
VL: DIQMTQSPSTLSASVGDRVTITCKCQLSVGYMHWYQQKPGKAPKLLIYDTSKLASGVPSRFSGSGSGTEFTLTISSLQPDDFATYYCFQGSGYPFTFGGGTKLEIK
For the molecule B2, in experiment [2], the “IC50 (ng/ml), RSV neutralizing activity, TCID50 culture assay on HEp2 cells with the RSV A2 virus” value was 152 ng/mL.
